Laboratory results from the supplement of paper PMC9170038.

Tested on: MS2 coat protein
Assay: apparent KD of MS2 coat protein; designed switch direction (-1 OFF switch, 1 ON switch): 1; higher = weaker reporter binding
Method in brief: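 Three titration conditions were used: no input, 200 uM small-molecule ligand, and an oligonucleotide input. In each, SNAP-549-labelled MS2 coat protein was raised from 0.7 or 1.5 nM, doubling, to 3 µM over designed RNA switches transcribed on Illumina chips by stalled E. coli RNA polymerase. Curve fits of normalised cluster fluorescence gave values whose per-design median over clusters is the apparent KD.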

[1] = input ligand: microRNA oligo, concentration not stated
[2] = Eterna round: R95, input ligand: FMN 200 uM
[3] = Eterna round: R95, input ligand: microRNA oligo, concentration not stated
[4] = Eterna round: R95, input ligand: none

## UACAAUCUAUCUGAGGAUAUCAUGAAAAAAACAUGAGGAUCACCCAUGUGCAGGAAAACUGCAUAUGAGAAGGCAGAUAGAUUGU [salish99_SS2_r3_006] (Eterna round: R96, puzzle: Same State 2)
[1]
  apparent KD of MS2 coat protein: 585 nM

## GGCGGCCUGGGAGGAUAUCGGGCCCUUUGGGCCCGAGAAGGUCCGGAGCCUCUGACAUGAGGAUCACCCAUGUAGGCUGCUGCC [first try] (Eterna round: R96, puzzle: Same State NG 1)
Input ligand: FMN 200 uM
  apparent KD of MS2 coat protein: 45.4 nM
[1]
  apparent KD of MS2 coat protein: 186 nM
Input ligand: none
  apparent KD of MS2 coat protein: 154 nM

## UAUGAAUUGCAAGGAUAUUGAUAACAUGAGGAUCACCCAUGUAAUUGAUCGAGUUAGAUCAGUUACAAGAAGGUGCUAUUGUUU [JR_SSNG2_Sub037] (Eterna round: R96, puzzle: Same State NG 2)
Input ligand: FMN 200 uM
  apparent KD of MS2 coat protein: 1810 nM
[1]
  apparent KD of MS2 coat protein: 33.2 nM
Input ligand: none
  apparent KD of MS2 coat protein: 70 nM

## UCAAUCAUGUAAGGAUAUGCAGCCGAAACGGCUGCAGAAGGUACUAUAAUUACAUGAGGAUCACCCAUGUUAUAAAAUUUAUAU [Mat - Same State NG 1 - JL mod - D67] (Eterna round: R96, puzzle: Same State NG 1)
[1]
  apparent KD of MS2 coat protein: 85 nM

## AACAAUCUUUCUGAGGAUAUCAUGAAAUAAACAUGAGGAUCACCCAUGUGCAGGAAAACUGCAUAUGAGAAGGCAGAUAGAUUGA [salish99_ss2_r3_024] (puzzle: Same State 2)
[2]
  apparent KD of MS2 coat protein: 43.3 nM
[3]
  apparent KD of MS2 coat protein: 414 nM
[4]
  apparent KD of MS2 coat protein: 1220 nM

## UUACGUACGUAUGAGGAUAUCCAUAAUAAGACAUGAGGAUCACCCAUGUAAACAAAACAAUAAUGGGAGAAGGCAUACGUACGAA [Mat - Same state - Malcolm Mod - D135] (Eterna round: R96, puzzle: Same State 2)
[1]
  apparent KD of MS2 coat protein: 53 nM

## GAGUGGCAGUAAGGAUAUAUAGUGAUAAUCACAGUAGAAGGUACUGACAUGAGGAUCACCCAUGUAGGACUAAUCCAGAGAGAG [Parity 42 - Jieux - Same State NG 1] (Eterna round: R96, puzzle: Same State NG 1)
Input ligand: FMN 200 uM
  apparent KD of MS2 coat protein: 73.6 nM
[1]
  apparent KD of MS2 coat protein: 26.4 nM
Input ligand: none
  apparent KD of MS2 coat protein: 37.5 nM

## AACAGUCGGCGAGGAUAUGGACGUACGGACUAACCCGUGCAGCUCACAUGAGGAUCACCCAUGUUCUAGAAGGCGCCACUGAAA [Onesusatza] (Eterna round: R96, puzzle: Same State NG 2)
Input ligand: FMN 200 uM
  apparent KD of MS2 coat protein: 15.9 nM
[1]
  apparent KD of MS2 coat protein: 87.6 nM
Input ligand: none
  apparent KD of MS2 coat protein: 147 nM

## UUAAUUAAUUAAUUAUACAUGAGGAUCACCCAUGUAAGUGAUCAGGAUAUCAGCUCGUUUAGAGCUGAGAAGGGAUACAUGUAA [SSNG3/13-A3] (Eterna round: R96, puzzle: Same State NG 3)
Input ligand: FMN 200 uM
  apparent KD of MS2 coat protein: 111 nM
[1]
  apparent KD of MS2 coat protein: 139 nM
Input ligand: none
  apparent KD of MS2 coat protein: 214 nM

## CUUGGGUGGCUGGAGGAUAUUCGAGUGGUAACAUGAGGAUCACCCAUGUGUCGCGCGGUACACGAGGAGAAGGCUGGCGGCCGGC (puzzle: Same State 2)
[3]
  apparent KD of MS2 coat protein: 84.8 nM

## AGGUGGUGUGGAAAGGAUAUACGGUUGAGGACAUGAGGAUCACCCAUGUGGUAGAGGACGUAAGGGUAGAAGGUUCGGGAUUGGU [JR_SS@_Sub022] (puzzle: Same State 2)
[2]
  apparent KD of MS2 coat protein: 41.2 nM
[3]
  apparent KD of MS2 coat protein: 36.5 nM
[4]
  apparent KD of MS2 coat protein: 41.7 nM

## GUGCUCGUGUGAGGAUAUGCUUCCGUUUCGGCUGCAGAAGGUACUAUUAUACAUGAGGAUCACCCAUGUCUCUUUUCUCCGGUG [salish99_SSNG1_r04_913] (Eterna round: R96, puzzle: Same State NG 1)
Input ligand: FMN 200 uM
  apparent KD of MS2 coat protein: 38.3 nM
[1]
  apparent KD of MS2 coat protein: 27.4 nM
Input ligand: none
  apparent KD of MS2 coat protein: 37.2 nM

## UCAAGCGAAAGGCUCGUCUUAUGCAAGAAACAUGAGGAUCACCCAUGUGAGGGACGAUUGAGUUAGAUGGAAUGGAA [JR_SHM208A_Sub031] (puzzle: Sensor for hsa-mir-208a)
[2]
  apparent KD of MS2 coat protein: 24.7 nM
[3]
  apparent KD of MS2 coat protein: 66.6 nM
[4]
  apparent KD of MS2 coat protein: 25 nM

## GCCGGCUGGUGAGGAUAUGGCACCUUAUUGGUGCCAGAAGGCAUGUCAAUUGACAUGAGGAUCACCCAUGUAUUAUAGUUGGCG [salish99_SSNG1_r04_605] (Eterna round: R96, puzzle: Same State NG 1)
Input ligand: FMN 200 uM
  apparent KD of MS2 coat protein: 414 nM
[1]
  apparent KD of MS2 coat protein: 69.3 nM
Input ligand: none
  apparent KD of MS2 coat protein: 56.1 nM

## CUGUGUUGCGGGCAGGAUAUGUAUUGGGAUACAUGAGGAUCACCCAUGUGCGGGUGUUUCACCCGACAGAAGGGCCAAUCGCGAC [JL-ss2-3.22 ViennaUCT mod] (puzzle: Same State 2)
[2]
  apparent KD of MS2 coat protein: 200 nM
[3]
  apparent KD of MS2 coat protein: 370 nM
[4]
  apparent KD of MS2 coat protein: 472 nM

## CCAACGUACAAUUUAGAUCUACAUGAGGAUCACCCAUGUACGGAGGAUAUCAGCUCGUGUAGAGCUGAGAAGGCCGAAUUAAUU [SSNG3/2-A4] (Eterna round: R96, puzzle: Same State NG 3)
Input ligand: FMN 200 uM
  apparent KD of MS2 coat protein: 88 nM
[1]
  apparent KD of MS2 coat protein: 298 nM
Input ligand: none
  apparent KD of MS2 coat protein: 465 nM

## GUGGUCAGACAUGAGGAUCACCCAUGUGGAAUAAAUAAGGCAUAGGAUAUAAAAUAUAGGAUAUAUUAGAAGGAUGGGUUGGUG (Eterna round: R96, puzzle: Same State NG 3)
Input ligand: FMN 200 uM
  apparent KD of MS2 coat protein: 145 nM
[1]
  apparent KD of MS2 coat protein: 83.7 nM
Input ligand: none
  apparent KD of MS2 coat protein: 144 nM

## CUUAACAGAGGAGGAUAUGCAGAGGAUCACCCUGUAGAAGGCCACAGAGGAGGAUAUGCAGAGGAUCACCCUGUAGAAGGCCAC [pwkr ssNG DX.8] (Eterna round: R96, puzzle: Same State NG 1)
Input ligand: FMN 200 uM
  apparent KD of MS2 coat protein: 622 nM
[1]
  apparent KD of MS2 coat protein: 143 nM
Input ligand: none
  apparent KD of MS2 coat protein: 280 nM

## GUCAGCGAUUGAGGAUAUCACGUCGAAUAGACGUGAGAAGGCGAUCAUAACAUGAGGAUCACCCAUGUAUUACAUGAAGCUGAC [SSNG1/5-A1] (Eterna round: R96, puzzle: Same State NG 1)
Input ligand: FMN 200 uM
  apparent KD of MS2 coat protein: 15.2 nM
[1]
  apparent KD of MS2 coat protein: 22.4 nM
Input ligand: none
  apparent KD of MS2 coat protein: 29.1 nM

## GUGGUCAGACAUGAGGAUCACCCAUGUGGAAUAAAUAACAGACAGGAUAUCUAAUAUAGGAUAUAGGAGAAGGGUCGAUUGGUG (Eterna round: R96, puzzle: Same State NG 3)
[1]
  apparent KD of MS2 coat protein: 73.5 nM

## CAGCGCUGUCGAGAGGAUAUGCGGUGAUGGACAUGAGGAUCACCCAUGUAAGCGAUAGCAUUACGGCAGAAGGCUCUGCAGCUGC [Riaranzaes] (Eterna round: R96, puzzle: Same State 2)
[1]
  apparent KD of MS2 coat protein: 17.2 nM

## UUAAUGAUGUAAGGAUAUACAUGAGGAAAUCUCGUAGAAGGUACAGGACAUGAGGAUCACCCAUGUGUCGCUCAGAAGAGCGUA [Mat - Same State NG 1 - JL mod - D18] (Eterna round: R96, puzzle: Same State NG 1)
Input ligand: FMN 200 uM
  apparent KD of MS2 coat protein: 86.3 nM
[1]
  apparent KD of MS2 coat protein: 39.6 nM
Input ligand: none
  apparent KD of MS2 coat protein: 71.2 nM

## AAACGGCCCAACGGAGGGCCACAUGAGGAUCACCCAUGUACAUAGGAUAUCACGCCAACGAGGCGUGAGAAGGGUGAUUAAAAC [Bisomaor] (Eterna round: R96, puzzle: Same State NG 3)
Input ligand: FMN 200 uM
  apparent KD of MS2 coat protein: 28.8 nM
[1]
  apparent KD of MS2 coat protein: 8.11 nM
Input ligand: none
  apparent KD of MS2 coat protein: 73.5 nM

## AACAUUCUAUCUCAGGAUAUCAUGUCAAAGACAUGAGGAUCACCCAUGUACCAGGAAACUGGUUAUGAGAAGGGAGAUAGAAUGG [Mat - Same State 2 - Mod - D48] (puzzle: Same State 2)
[2]
  apparent KD of MS2 coat protein: 182 nM
[3]
  apparent KD of MS2 coat protein: 195 nM
[4]
  apparent KD of MS2 coat protein: 624 nM

## GUGGCCCAGGCACAGGAUAUGUUUCUCGUAACAUGAGGAUCACCCAUGUGCCUAUGAGAUUGUUUGCAGAAGGGUGCACGCCACG [JL Atiinbe mod 03] (Eterna round: R96, puzzle: Same State 2)
Input ligand: FMN 200 uM
  apparent KD of MS2 coat protein: 18.3 nM
[1]
  apparent KD of MS2 coat protein: 146 nM
Input ligand: none
  apparent KD of MS2 coat protein: 290 nM

## AUAUUACAUGAGGAUCACCCAUGUCUCUAAAGUCGAGGAUAUGGGCAGGUUAUAUCCGAACCAGAAGGCGAAUUAU [SS1 Teenbexe 9] (puzzle: Same State 1)
[2]
  apparent KD of MS2 coat protein: 66.9 nM
[3]
  apparent KD of MS2 coat protein: 317 nM
[4]
  apparent KD of MS2 coat protein: 633 nM

## AGUCCAGCCUGAGCUGGACAAAAGCAUGUACAUGAGGAUCACCCAUGUUCAUGUACAAGCUUUUUGCUCGUCUUACG [salish99_208a_r3_078] (puzzle: Sensor for hsa-mir-208a)
[2]
  apparent KD of MS2 coat protein: 673 nM
[3]
  apparent KD of MS2 coat protein: 17.1 nM
[4]
  apparent KD of MS2 coat protein: 638 nM

## UGCCUGAGUCGAGGAUAUUAUGGAUCCUUUAAUACAUGAGGAUCACCCAUGUAAUUAAUUAUACAUGAGAAGGUGACUCAGGCU [SSNG2/11-B3] (Eterna round: R96, puzzle: Same State NG 2)
Input ligand: FMN 200 uM
  apparent KD of MS2 coat protein: 24.3 nM
[1]
  apparent KD of MS2 coat protein: 194 nM
Input ligand: none
  apparent KD of MS2 coat protein: 253 nM

## AUUUUUAAUGCAGGAUAUGAUUAACAUGAGGAUCACCCAUGUGGUGUUGUGAGUAAGGAGAGUGAUCAGAAGGGCAUUUUUAUU [JMF's solution 84] (Eterna round: R96, puzzle: Same State NG 2)
Input ligand: FMN 200 uM
  apparent KD of MS2 coat protein: 1180 nM
[1]
  apparent KD of MS2 coat protein: 450 nM
Input ligand: none
  apparent KD of MS2 coat protein: 615 nM

## GGAGCCGGUACUGAGGAUAUUCAUAUUAAAACAUGAGGAUCACCCAUGUAGGCCAGAAGGCCUUGGGAGAAGGCAGACCAGCUCG [Atgexeedri] (Eterna round: R96, puzzle: Same State 2)
Input ligand: FMN 200 uM
  apparent KD of MS2 coat protein: 18 nM
[1]
  apparent KD of MS2 coat protein: 190 nM
Input ligand: none
  apparent KD of MS2 coat protein: 271 nM

## UUGAAGAAUAUAGGAUAUUGAAUACAUAUGUUUAACAUGAGGAUCACCCAUGUGGGUUGCGGUAUCGAGAAGGAUAAUUACUAG [Mat - Same State NG 2 - JL mod - D12] (Eterna round: R96, puzzle: Same State NG 2)
Input ligand: FMN 200 uM
  apparent KD of MS2 coat protein: 185 nM
[1]
  apparent KD of MS2 coat protein: 131 nM
Input ligand: none
  apparent KD of MS2 coat protein: 140 nM

## UCUUGGUUUUUGCUCGUUUUUUGUGUUGAACAUGAGGAUCACCCAUGUAUUGUACAGUCCAGUUUAAUAAUGGUCCA [JMF 5] (puzzle: Sensor for hsa-mir-208a)
[2]
  apparent KD of MS2 coat protein: 33.9 nM
[3]
  apparent KD of MS2 coat protein: 24.6 nM
[4]
  apparent KD of MS2 coat protein: 48.8 nM
